Biological target: aflibercept (human)
Experiment: SPR

human VEGF-A165 (ligand)
Kd: 14.7 pM | kon: 1.16e+07 M⁻¹ s⁻¹
